In US5622828, “High-affinity oligonucleotide ligands to secretory phospholipase A2 (sPLA2)” (Nexstar Pharmaceuticals, Inc.):
Residue numbers refer to the chain shown, from its start.

T1: secretory phospholipase A2 (sPLA2) (Homo sapiens, UniProt P14555 P14555:21-144)
T1 sequence: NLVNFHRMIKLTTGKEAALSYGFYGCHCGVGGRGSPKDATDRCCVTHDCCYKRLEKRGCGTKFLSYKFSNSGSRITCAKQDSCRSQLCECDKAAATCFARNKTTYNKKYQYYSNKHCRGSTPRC

B1: NN18 (ssRNA)
RNA: GGGAAAAGCGAAUCAUACACAAGAGGAUGGCGGCAAGGCGCGAAAGGGAGGAUCGAGGAGGAAUCGCGUCAGGAGCUCCGCCAGAGACCAACCGAGAA
modifications: 2'-NH2 all C and U
B2: NN39 (ssRNA)
RNA: GGGAAAAGCGAAUCAUACACAAGACUGGUUGUGCGGACCCAGUGAGUGGGAGGACGUGAGGGUGGCAGCUGGGCUCCGCCAGAGACCAACCGAGAA
modifications: 2'-NH2 all C and U
B3: 71 (ssRNA)
RNA: GGGAGCUCAGAAUAAACGCUCAAUCUCAUGCUCGUCGCACGGCGUAACCUAUUUCGACAUGAGGCCCGGAUCCGGC
B4: NN40 (ssRNA)
RNA: GGGAAAAGCGAAUCAUACACAAGACCCCUUGAGCUCGUGACGCAGGAGGAGGGCCGAGGAGGAAAGUCGUCACAGCUCCGCCAGAGACCAACCGAGAA
modifications: 2'-NH2 all C and U
B5: NN19.13 (ssRNA)
RNA: GGGAAAAGAAGACCGGCCGGCGCCAUAGCCGAGAUCCGAGGUGUUGAGACCAACCGAGAA
modifications: 2'-NH2 all C and U
B6: NS6 (ssRNA)
RNA: GGGAGGACGAUGCGGAACUAAAAGACAGAGAGAAAACGACAAUACGAAGUACAUAUAACCCUGGCCAGACGACUCGCCCGA
modifications: 2'-NH2 all C and U
B7: NS13 (ssRNA)
RNA: GGGAGGACGAUGCGGUGAGCUUAGGAUAGGAGCAACAAGUAGAGUAGAGUGAUAACUAGGGUGGCCAGACGACUCGCCCGA
modifications: 2'-NH2 all C and U
B8: NN19.4 (ssRNA)
RNA: GGGAAAAGAAGACCGGCCGGCGCCAUAGCCGAGAUCCGAGGUGUUGA
modifications: 2'-NH2 all C and U
B9: NS14 (ssRNA)
RNA: GGGAGGACGAUGCGGAAAUGUGUUAGUGAAUGAUUGAGAGAAGAUAGAUGAUGUUGAAGUCUGGCCAGACGACUCGCCCGA
modifications: 2'-NH2 all C and U
B10: NS4 (ssRNA)
RNA: GGGAGGACGAUGCGGGUAGGGAUAAGCGAGUGUACAGCGAAUACGACUCGGAAUGCUUGGUGCGCCAGACGACUCGCCCGA
modifications: 2'-NH2 all C and U
B11: NN1 (ssRNA)
RNA: GGGAAAAGCGAAUCAUACACAAGACGGCGAGCAUGCGGCGAGUGGAGGGGGACUGAUGGAGGGCGAGACCGUGUGCUCCGCCAGAGACCAACCGAGAA
modifications: 2'-NH2 all C and U
B12: NN22 (ssRNA)
RNA: B11 RNA with G49A
modifications: 2'-NH2 all C and U
B13: NS10 (ssRNA)
RNA: GGGAGGACGAUGCGGUGACAAAUGAGCAAGUAGCGAUAGAUGUGAUGGACAGAGACAGCCGGGGCCAGACGACUCGCCCGA
modifications: 2'-NH2 all C and U
B14: NS12 (ssRNA)
RNA: GGGAGGACGAUGCGGUGAAAGAGAAAGGUUGAGAUGAUUACAAGCGAAUUGGAUAAGUGUCUGGCCAGACGACUCGCCCGA
modifications: 2'-NH2 all C and U
B15: NN19.11 (ssRNA)
RNA: GGGAAAAGAAGACCGGCCGGCGCCAUAGCCGAGAUCCGAGGUGUUGAACGAUAGACCAACCGAGAA
modifications: 2'-NH2 all C and U
B16: NS48 (ssRNA)
RNA: GGGAGGACGAUGCGGGCUAAGGGAAGACAAUGAGAUAGCAGACAAUCAACUACACCCAUGUGCGUCAGACGACUCGCCCGA
modifications: 2'-NH2 all C and U
B17: NS1 (ssRNA)
RNA: GGGAGGACGAUGCGGAUAAGGAGGAGCAAGCGAGAAAUUGAGAAGUAACAAGAUCGACAUGGCCCCAGACGACUCGCCCGA
modifications: 2'-NH2 all C and U
B18: NN19.14 (ssRNA)
RNA: GGGAAAAGAAGACCGGCCGGCGCCAUAGCCGAGAUCCGAGGUGUUGAACGAUCCGAGAA
modifications: 2'-NH2 all C and U
B19: NS18 (ssRNA)
RNA: GGGAGGACGAUGCGGAAGUAGAUGAUGGAUUGAGAUGUAAGUGUCAGUAUGAAGAGUCUCUGGGCCAGACGACUCGCCCGA
modifications: 2'-NH2 all C and U
B20: NS2 (ssRNA)
RNA: GGGAGGACGAUGCGGUAGUAACGGAUACUGAUCCGAGGUUAUAGUCACUAUAUCAUCCGCUGCGCCAGACGACUCGCCCGA
modifications: 2'-NH2 all C and U
B21: NS49 (ssRNA)
RNA: GGGAGGACGAUGCGGAUAAGGAUAAGAUCGAACGAGAGUGAACAAAGUUAAAUACAGUCUGGGGGCAGACGACUCGCCCGA
modifications: 2'-NH2 all C and U
B22: NN30 (ssRNA)
RNA: GGGAAAAGCGAAUCAUACACAAGAGCCAGCGAGUGUCGACAGUGUGGGUGGAAGUGACGGGAGGAUUGGAGACGCUCCGCCAGAGACCAACCGAGAA
modifications: 2'-NH2 all C and U
B23: NS7 (ssRNA)
RNA: GGGAGGACGAUGCGGAGGAAAUGAAGUAGUGAGAGUAUAACAUGAUUAUGAAUACGUGAUGUGGCCAGACGACUCGCCCGA
modifications: 2'-NH2 all C and U
B24: NS39 (ssRNA)
RNA: GGGAGGACGAUGCGGGUAGGGAUGAAGUGCGAUGUGAAUCCGGGUGCUAGCGAUGAUGUGUGCCCCAGACGACUCGCCCGA
modifications: 2'-NH2 all C and U
B25: 72F (ssRNA)
RNA: GGGAGCUCAGAAUAAACGCUCAAGACCUCUGCUUACAGCCCGGCUGAGACACUUCGACAUGAGGCCCGGAUCCGGC
modifications: 2'-F all C and U
B26: 86tF (ssRNA)
RNA: GGGAGCUCAGAAUAAACGCUCAACGCCUCAUGCCAAUGCGGGAGGGUGGGUGGUUCGACAUGAGGCCCGGAUCCGGC
modifications: 2'-F all C and U
B27: 73tF (ssRNA)
RNA: GGGAGCUCAGAAUAAACGCUCAACUUACAGUUCGGCUGAGAGAAGACGCAUACUUCGACAUGAGGCCCGGAUCCGGC
modifications: 2'-F all C and U
B28: 11tF (ssRNA)
RNA: GGGAGCUCAGAAUAAACGCUCAACUUACGGGUAAAGCCGAGAAAAUGUAUUGCUUCGACAUGAGGCCCGGAUCCGGC
modifications: 2'-F all C and U
B29: NN10 (ssRNA)
RNA: GGGAAAAGCGAAUCAUACACAAGACCGGCCGGCGCCAUAGCCGAGAUCCGAGGUUGUACGAUGACAACUCAGUGCUCCGCCAGAGACCAACCGAGAA
modifications: 2'-NH2 all C and U
B30: NN11 (ssRNA)
RNA: GGGAAAAGCGAAUCAUACACAAGACCGGCCGGGGAAACCCGAGGUCCGAGGUAACGCAUGGCGCCUCACCGAGUCGCUCCGCCAGAGACCAACCGAGAA
modifications: 2'-NH2 all C and U
B31: NN16 (ssRNA)
RNA: B30 RNA with G44A
modifications: 2'-NH2 all C and U
B32: NN5 (ssRNA)
RNA: GGGAAAAGCGAAUCAUACACAAGACCGGCCCCGCCAAUCAAGGGAGAUCCGAGGAAUUGGAAUGUUUGUGAGUGAGCUCCGCCAGAGACCAACCGAGAA
modifications: 2'-NH2 all C and U
B33: NN2 (ssRNA)
RNA: GGGAAAAGCGAAUCAUACACAAGAGACCGGCCAGCCAAGGCGCUGAGAUCCGAGGUUUCAGAACCCAUCGGGUUGGCUCCGCCAGAGACCAACCGAGAA
modifications: 2'-NH2 all C and U
B34: NN29 (ssRNA)
RNA: GGGAAAAGCGAAUCAUACACAAGACCGGCCCGGUGUGUAGCCGGAGAUCCGAGACUUGCUGAACGAGGUGCCACGGCUCCGCCAGAGACCAACCGAGAA
modifications: 2'-NH2 all C and U
B35: NN41 (ssRNA)
RNA: B34 RNA with U38C, G65A
modifications: 2'-NH2 all C and U

molecular target: T1, secretory phospholipase A2 (sPLA2); assay: filter; like random pool; TBSC, 37 C; conditions: tags: supplied by Eli Lilly
Procedure: (§1) The nitrocellulose filter partitioning method was used as described in SELEX Patent Applications to determine the affinity of RNA ligands for sPLA_2 and for other promins. Filter discs (nitrocellulose/cellulose acetate mixed matrix, 0.45 µm pore size, Millipore) were placed on a vacuum manifold and washed with 5 ml of TBSC buffer under vacuum. Reaction mixtures, containing ^32P labeled RNA pools and sPLA_2, were incubated in TBSC for 5 minutes at 37° C., filtered, and then immediately washed with 5 ml TBSC. The filters were air-dried and counted in a Beckman liquid scintillation counter without fluor.
(§2) The dissociation constants for representative members of families I–VI, orphan and other ligands were determined by nitrocellulose filter binding experiments and are listed in Table III. Unlike random RNA, all tested ligands from the 2'OH SELEXes bound biphasically.

Row | Binder | Kd
1 | B1 | 71 nM
2 | B2 | 52 nM

molecular target: T1, secretory phospholipase A2 (sPLA2); assay: filter; biphasic, Kd2 82 nM, mole fraction 0.60; TBSC with 5 mM CaCl2, 37 C; conditions: tags: supplied by Eli Lilly
Procedure: as §1, §2

Row | Binder | Kd
3 | B3 | 1.3 nM

molecular target: T1, secretory phospholipase A2 (sPLA2); assay: filter; TBSC, 37 C; conditions: tags: supplied by Eli Lilly
Procedure: as §1, §2

Row | Binder | Kd
4 | B4 | 31 nM
5 | B5 | 2.2 nM
6 | B6 | 28 nM
7 | B7 | 15 nM
8 | B8 | 7.3 nM
9 | B9 | 12 nM
10 | B10 | 24 nM
11 | B11 | 21 nM
12 | B12 | 36 nM
13 | B13 | 22 nM
14 | B14 | 40 nM
15 | B15 | 0.5 nM
16 | B16 | 42 nM
17 | B17 | 42 nM
18 | B18 | 1 nM
19 | B19 | 52 nM
20 | B20 | 22 nM
21 | B21 | 26 nM
22 | B22 | 23 nM
23 | B23 | 18 nM
24 | B24 | 16 nM

molecular target: T1, secretory phospholipase A2 (sPLA2); assay: filter; monophasic; TBSC, 37 C; conditions: tags: supplied by Eli Lilly
Procedure: as §1, §2

Row | Binder | Kd
25 | B25 | 5.6 nM
26 | B26 | 12 nM
27 | B27 | 14 nM
28 | B28 | 7 nM

same assay, conditions: tags: supplied by Eli Lilly; hairpin with asymmetric internal loop

Row | Binder | Kd
29 | B29 | 0.4 nM
30 | B30 | 2.8 nM
31 | B31 | 0.9 nM
32 | B32 | 4.6 nM
33 | B33 | 1.2 nM
34 | B34 | 2.5 nM
35 | B35 | 1.2 nM
